Data as given in patent US20240209076A1 (KODIAK SCIENCES, published 2024).
Changes are numbered by the printed parent chain. Names and notes keep the numbering of the source.

Tests used:
VEGF-A165 [1] = target: T1, VEGF-A165 (UniProt P15692-4 27-191); assay: SPR (Biacore T200), 37 C, binder captured on a Protein A chip, VEGF-A165 0.19 to 15 nM flowed over, 1:1 Langmuir fit
T1 construct: analyte of the Biacore assays

recombinant human IL-6 [2] = target: T2, recombinant human IL-6 (human, UniProt P05231 30-212); assay: SPR, antibody captured on Protein A, IL-6 as analyte
T2 sequence (P05231 30-212 limits assumed): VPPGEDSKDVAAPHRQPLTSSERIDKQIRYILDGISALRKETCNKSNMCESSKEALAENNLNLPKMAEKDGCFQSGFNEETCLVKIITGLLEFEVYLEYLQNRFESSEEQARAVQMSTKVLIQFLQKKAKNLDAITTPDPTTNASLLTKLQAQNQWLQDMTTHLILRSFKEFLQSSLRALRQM
Description: Antibodies were captured on a Protein A chip (GE) by injecting 1:20 dilution of cell supernatant at 10 μL/min for 60 seconds. […] The sensor chip was regenerated by a 60 seconds injection of 10 mM Glycine pH 1.7 at flow rate of 50 μL/min. […] For this setup, 1 μg/mL of purified antibody was injected over a Protein A chip at 10 μL/min for 25-28 seconds. Data analysis for supernatant and purified samples were performed using BIAevaluation software (GE). All sensorgrams were double reference subtracted and fit using a 1:1 Langmuir binding model.

recombinant human IL-6 [3] = target: T2, recombinant human IL-6; assay: SPR, antibody captured on Protein A, 37 C
Description: Antibodies were captured on a Protein A chip (GE) by injecting 1:20 cell supernatant dilutions at 10 μL/min for 60 seconds. […] The sensor chip was regenerated by a 60 seconds injection of 10 mM Glycine pH 1.7 at the flow rate of 50 μL/min. […] For this setup, 1 μg/mL of purified antibody was injected over a Protein A chip at 10 μL/min for 25 seconds. […] The sensor chip was regenerated by a 60 seconds injection of 10 mM Glycine pH 1.7 at flow rate of 50 μL/min. Data analysis for supernatant and purified samples were performed using BIAevaluation software (GE). All sensorgrams were double reference subtracted and fit using a 1:1 Langmuir binding model.

VEGF [4] = target: VEGF (UniProt P15692-4 27-191, limits assumed); assay: cell-based or functional assay
Target sequence in this assay (P15692 other isoform, or with tags, fused parts or gaps limits assumed): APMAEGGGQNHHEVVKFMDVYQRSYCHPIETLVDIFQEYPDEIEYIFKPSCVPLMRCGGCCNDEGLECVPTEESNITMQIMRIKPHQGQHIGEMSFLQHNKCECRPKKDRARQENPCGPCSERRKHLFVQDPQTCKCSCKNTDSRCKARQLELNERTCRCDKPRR

VEGF-A165 [5] = target: T1, VEGF-A165; assay: Biacore T200 SPR at 37 C, binder captured on Protein A chip, VEGF-A165 0.19 to 15 nM in five steps, 60 min dissociation, 1:1 Langmuir fit
Description: FIGS. 14A-14F illustrate the results for a series of Biacore assays used to determine the affinity between Anti-VEGF agents and VEGF. Binding kinetics between molecules were measured using a Biacore T200 (GE Healthcare) at 37° C. in buffer HBS-EP+ containing 1 mg/mL BSA. […] The sensor chip surface was regenerated by 60 seconds injection of 10 mM Glycine, pH 1.7 at a flow rate of 50 μl/min. All sensorgrams were double reference subtracted and fit using a 1:1 Langmuir binding model.

recombinant human IL-6 [6] = target: T2, recombinant human IL-6; assay: IL-6/IL-6R competitive ELISA as in example 3
Description: The plate was blocked in 2% bovine serum albumin (BSA) in PBS-Tween (PBST) for 2 hours. […] This mixture was then added to the ELISA plate following a wash step.

[7] = target: T3, biotinylated VEGF (R&D Systems) (UniProt P15692-4 27-191, limits assumed, biotinylated); assay: VEGF/VEGFR competitive ELISA as in example 3
T3 construct: also called btVEGF; bt-VEGF
T3 sequence (P15692 other isoform, or with tags, fused parts or gaps limits assumed): as above
Description: The plate was blocked in 2% bovine serum albumin (BSA) in PBS-Tween (PBST) for 2 hours.
This assay was performed as described in example 3.

human IL-6 [8] = target: T4, human IL-6 (human, UniProt P05231 30-212); assay: KinExA 3200, kinetic measurement, 37 C
T4 sequence (P05231 30-212 limits assumed): as the sequence (P05231 30-212 limits assumed) above

human IL-6 [9] = target: T4, human IL-6; assay: KinExA 3200, in solution, 37 C
human IL-6 [10] = target: T4, human IL-6; assay: KinExA 3200, calculated as Kd x kon, 37 C
VEGF [11] = target: T5, VEGF (UniProt P15692-4 27-191, limits assumed); assay: KinExA 3200, kinetic measurement, 37 C
T5 construct: also called VEGF-A
T5 sequence (P15692 other isoform, or with tags, fused parts or gaps limits assumed): as the sequence (P15692 other isoform, or with tags, fused parts or gaps limits assumed) above

VEGF [12] = target: T5, VEGF; assay: KinExA 3200, in solution, 37 C
VEGF [13] = target: T5, VEGF; assay: KinExA 3200, calculated as Kd x kon, 37 C

T1 sequence (P15692 other isoform, or with tags, fused parts or gaps limits assumed): as above

B1: VEGFR-Fc (VEGF trap Fc fusion, sequence 6A) (Fc fusion)
chain: SDTGRPFVEMYSEIPEIIHMTEGRELVIPCRVTSPNITVTLKKFPLDTLIPDGKRIIWDSRKGFIISNATYKEIGLLTCEATVNGHLYKTNYLTHRQTNTIIDVVLSPSHGIELSVGEKLVLNCTARTELNVGIDFNWEYPSSKHQHKKLVNRDLKTQSGSEMKKFLSTLTIDGVTRSDQGLYTCAASSGLMTKKNSTFVRVHEKDKTHTCPPCPAPEAAGAPSVFLFPPKPKDTLMISRTPEVTCVVVDVSHEDPEVKFNWYVDGVEVHNAKTKPREEQYNSTYRVVSVLTVLHQDWLNGKEYKCKVSNKALPAPIEKTISKAKGQPREPQVYTLPPSREEMTKNQVSLTCLVKGFYPSDIAVEWESNGQPENNYKTTPPVLDSDGSFFLYSKLTVDKSRWQQGNVFSCSVMHEALHNHYTQKSLSCSPGK
notes: VEGF trap with engineered IgG1 Fc (L234A, L235A, G237A, L443C); also called VEGFR-Trap Fc fusion
Kd (VEGF-A165 [1]): 0.0102 nM
koff (VEGF-A165 [1]): 9.29e-05 s⁻¹
kon (VEGF-A165 [1]): 9.14e+06 M⁻¹ s⁻¹

B2: anti-IL-6 antibody, heavy chain G66D, light chain wild-type (antibody, human IgG1, V domains shown)
VH: EVQLVESGGGLVQPGGSLRLSCAASGFTFSPFAMSWVRQAPGKGLEWVAKISPGGSWTYYSDTVTDRFTFSLDTSKSTAYLQMNSLRAEDTAVYYCARQLWGYYALDIWGQGTLVTVSS
VL: DIQLTQSPSSLSASVGDRVTITCSASISVSYMYWYQQKPGKAPKLLIYDMSNLASGVPSRFSGSGSGTDFTLTISSLQPEDFATYYCMQWSGYPYTFGQGTKVEIK
notes: see m23; engineered human IgG1
fold decrease in KD relative to wild-type (recombinant human IL-6 [2]): ~2 fold

B3: anti-IL-6 antibody, heavy chain S35H G66D, light chain M32L/M50D/N52S/M88Q (antibody, human IgG1, V domains shown)
VH: B2 VH with S35H
VL: B2 VL with M32L, M50D, N52S, M88Q
notes: see m23; engineered human IgG1; also called S35H G66D double mutant
fold increase in affinity (recombinant human IL-6 [3]): ~1.3 fold

B4: anti-IL-6 antibody, heavy chain S35H G66D, light chain wild-type (antibody, human IgG1, V domains shown)
VH: B2 VH with S35H
VL: B2 VL
notes: as for B3
fold increase in affinity (recombinant human IL-6 [3]): ~2 fold

B5: VEGFR-Anti-IL-6 (sequences 1A-2A-3H, light chain 4A) (other)
heavy: SDTGRPFVEMYSEIPEIIHMTEGRELVIPCRVTSPNITVTLKKFPLDTLIPDGKRIIWDSRKGFIISNATYKEIGLLTCEATVNGHLYKTNYLTHRQTNTIIDVVLSPSHGIELSVGEKLVLNCTARTELNVGIDFNWEYPSSKHQHKKLVNRDLKTQSGSEMKKFLSTLTIDGVTRSDQGLYTCAASSGLMTKKNSTFVRVHEKGGGGSGGGGSEVQLVESGGGLVQPGGSLRLSCAASGFTFSPFAISWVRQAPGKGLEWVAKISPGGSWTYYSDTVTDRFTFSLDTSKSTAYLQMNSLRAEDTAVYYCARQLWGYYALDVWGQGTLVTVSSASTKGPSVFPLAPSSKSTSGGTAALGCLVKDYFPEPVTVSWNSGALTSGVHTFPAVLQSSGLYSLSSVVTVPSSSLGTQTYICNVNHKPSNTKVDKKVEPKSCDKTHTCPPCPAPEAAGAPSVFLFPPKPKDTLMISRTPEVTCVVVDVSHEDPEVKFNWYVDGVEVHNAKTKPREEQYNSTYRVVSVLTVLHQDWLNGKEYKCKVSNKALPAPIEKTISKAKGQPREPQVYTLPPSREEMTKNQVSLTCLVKGFYPSDIAVEWESNGQPENNYKTTPPVLDSDGSFFLYSKLTVDKSRWQQGNVFSCSVMHEALHNHYTQKSLSCSPGK
light: DIQLTQSPSSLSASVGDRVTITCSASISVSYLYWYQQKPGKAPKLLIYDDSSLASGVPSRFSGSGSGTDFTLTISSLQPEDFATYYCQQWSGYPYTFGQGTKVEIKRTVAAPSVFIFPPSDEQLKSGTASVVCLLNNFYPREAKVQWKVDNALQSGNSQESVTEQDSKDSTYSLSSTLTLSKADYEKHKVYACEVTHQGLSSPVTKSFNRGEC
notes: linker 2A is the double Gly-Gly-Gly-Gly-Ser repeat
cell-based VEGF stimulated VEGFR reporter assay (KDR/VEGF HEK293, luminescence), IC50 (VEGF [4]): 0.18 nM
Kd (VEGF-A165 [5]): 0.00798 nM
koff (VEGF-A165 [5]): 0.000603 s⁻¹
kon (VEGF-A165 [5]): 7.55e+07 M⁻¹ s⁻¹

B6: VEGFR-AntiIL6 (FIG. 27) (other)
heavy: B5 heavy with I249M, S250H, L315A, V323I
light: B5 light
cell based VEGF stimulated VEGFR reporter assay, average IC50 (VEGF [4]): 0.51 nM
IC50 (recombinant human IL-6 [6]): 0.26 nM
IC50 [7]: 1.98 nM

B7: VEGFR-AntiIL6 (other)
heavy: B5 heavy with I249M, S250H, L315A, V323I
light: B5 light
notes: VEGF trap (VEGFR1 domain 2 - VEGFR2 domain 3) fused by a GS linker to the N-terminus of the anti-IL-6 IgG1 heavy chain; also called VEGF Trap-anti-IL6 antibody fusion
kon (human IL-6 [8]): 1.15e+07 M⁻¹ s⁻¹
Kd (human IL-6 [9]): 0.0211 nM
koff (human IL-6 [10]): 0.000242 s⁻¹
kon (VEGF [11]): 4.04e+07 M⁻¹ s⁻¹
Kd (VEGF [12]): 0.0021 nM
koff (VEGF [13]): 8.49e-05 s⁻¹

B8: VEGFR-AntiIL6-OG1802 (other)
heavy: B5 heavy with I249M, S250H, L315A, V323I
light: B5 light
modifications: OG1802 phosphorylcholine biopolymer (about 794 kDa) on Cys L443C (EU numbering; 660C in SEQ ID NO: 170) by maleimide; one polymer per molecule
notes: Polymer conjugate of m3; also called VEGFR-AntiIL6 bioconjugate
kon (human IL-6 [8]): 8e+06 M⁻¹ s⁻¹
Kd (human IL-6 [9]): 0.0121 nM
koff (human IL-6 [10]): 9.66e-05 s⁻¹
kon (VEGF [11]): 3.75e+06 M⁻¹ s⁻¹
Kd (VEGF [12]): 0.00102 nM
koff (VEGF [13]): 3.83e-06 s⁻¹

B9: VEGFR-AntiIL6-OG1802 (other)
heavy: B5 heavy with I249M, S250H, L315A, V323I
light: B5 light
modifications: OG1802 phosphorylcholine polymer (about 794 kDa) on Cys L443C (EU numbering; 660C in SEQ ID NO: 170) by maleimide-cysteine chemistry, one polymer per molecule
notes: also called bioconjugate
cell based VEGF stimulated VEGFR reporter assay, average IC50 (VEGF [4]): 0.35 nM
IC50 (recombinant human IL-6 [6]): 0.23 nM
IC50 [7]: 0.99 nM
